In patent US20240002535A1 (Merck Sharp & Dohme, published 2024):

Legend:
[1] = molecular target: T1, human arginase 1 (hArg1), trimeric (human, UniProt P05089 1-322); assay: ITC, hArg1 trimer (100 uM, syringe) titrated into the antibody (10 uM, cell) at 25 C
T1 construct: Natural homotrimer; It carries two Mn ions in each active site; also called Human Arg1 trimer; trimeric hArg1
T1 sequence: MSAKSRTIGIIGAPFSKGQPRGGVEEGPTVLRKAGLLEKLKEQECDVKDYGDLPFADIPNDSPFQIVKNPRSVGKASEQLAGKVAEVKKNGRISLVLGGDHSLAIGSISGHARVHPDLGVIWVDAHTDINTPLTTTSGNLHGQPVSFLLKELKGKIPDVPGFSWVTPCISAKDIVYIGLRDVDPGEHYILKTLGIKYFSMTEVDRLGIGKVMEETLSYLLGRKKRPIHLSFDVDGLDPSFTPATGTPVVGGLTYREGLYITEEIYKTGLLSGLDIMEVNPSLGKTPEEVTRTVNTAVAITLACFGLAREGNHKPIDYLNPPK
Method: (§1) Isothermal titration calorimetry (ITC) was conducted using a MicroCal PEAQ-ITC Automated (Malvern Inc, Westborough, MA) to determine the stoichiometry and thermodynamics properties of the hArg1:mAb interaction. […] Arginase (100 μM) in the ITC syringe was titrated into the antibody (10 μM) in the ITC cell at 25° C. Reference power was set to 10 μcal/sec with initial delay of 60 seconds and stirring speed of 750 rpm. Injection volume was 0.4 μL for the first injection and 4 μL for subsequent injections. Injection duration was 0.8 seconds for the first injection and 6 seconds for subsequent injections with 150 sec spacing. Baseline was adjusted using buffer-buffer titration. Data analysis was done using MicroCal PEAQ-ITC Analysis Software.

[2] = molecular target: T1, human arginase 1 (hArg1), trimeric; assay: isothermal titration calorimetry: hArg1 trimer (100 µM, syringe) titrated into mAb4 mouse/human chimera (10 µM, cell) at 25 °C
Method: as §1

B1: mAb4 (mouse/human chimera) (antibody, V domains shown)
VH: EVQLQQSGPVLVKPGASVKMSCKASEYTFTDYYMNWVKQSHGRSLEWIGVISPYNGGTTYNQKFKGKATLTVDKSSSTAYMELNSLTSEDSAVYYCVYDLYYFDYWGQGTTLTVSS
VL: NIVLTQSPATLSVTPGDSVSLSCRASQRISNDLHWYQQKSHESPRLLIKYASQSISGIPSRFSGSGSGTDFTLSINSVETEDFGMYFCQQSNSWPRTFGGGTKLEIK
For B1, the “stoichiometry n (ITC)” value [1] was 0.637, the “-TΔS” value [2] was 3 kcal/mol and the ΔG [2] was -10.7 kcal/mol. For the same binder, the ΔH [2] was -13.7 kcal/mol.
